PMC8657434, “Aedes aegypti Piwi4 Structural Features Are Necessary for RNA Binding and Nuclear Localization”
Numbering of substitutions follows the chain as printed.

T1: AePiwi4 PAZ T41A (Aedes aegypti, UniProt Q171B3 270-380, T310A)
T1 sequence: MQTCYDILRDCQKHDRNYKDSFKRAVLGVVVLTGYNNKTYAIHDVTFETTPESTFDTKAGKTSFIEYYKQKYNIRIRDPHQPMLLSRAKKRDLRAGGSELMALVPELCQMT

T2: AePiwi4 PAZ T41R (Aedes aegypti, UniProt Q171B3 270-380, T310R)
T2 sequence: T1 sequence with A41R

T3: AePiwi4 PAZ Y40A (Aedes aegypti, UniProt Q171B3 270-380, Y309A)
T3 sequence: T1 sequence with Y40A, A41T

T4: AePiwi4 PAZ T39A (Aedes aegypti, UniProt Q171B3 270-380, T308A)
T4 sequence: T1 sequence with T39A, A41T

T5: AePiwi4 PAZ F55A (Aedes aegypti, UniProt Q171B3 270-380, F324A)
T5 sequence: T1 sequence with A41T, F55A

T6: AePiwi4 PAZ WT (Aedes aegypti, UniProt Q171B3 270-380)
T6 sequence: T1 sequence with A41T

B1: 3'nm 28 nt PCLV piRNA (ssRNA)
RNA: CGAUAAGUGAUCUUUCAGCACUGCAGAA
B2: 3'nm 28 nt scrambled RNA (ssRNA)
RNA: AUGAGGACAUAAGCCUACGUAGUAUUCC
B3: 3'm 28 nt PCLV piRNA (ssRNA)
RNA: CGAUAAGUGAUCUUUCAGCACUGCAGAA
modifications: 3' terminal 2'-O-methyl

Tests used:
Assay in all cases: SPR; SPR (Biacore T100, CM5-neutravidin, 5'-biotin RNA immobilized): 10 mM HEPES pH 7.4, 150 mM NaCl, 3 mM EDTA, 0.005% P20; steady-state fit; temperature not stated
Conditions in all cases: protein: recombinant; tags: 6xHis (C-terminal); label: 5' biotin; single strand
AePiwi4 PAZ T41A = molecular target: T1, AePiwi4 PAZ T41A
AePiwi4 PAZ T41R = molecular target: T2, AePiwi4 PAZ T41R
AePiwi4 PAZ Y40A = molecular target: T3, AePiwi4 PAZ Y40A
AePiwi4 PAZ T39A = molecular target: T4, AePiwi4 PAZ T39A
AePiwi4 PAZ F55A = molecular target: T5, AePiwi4 PAZ F55A
AePiwi4 PAZ WT = molecular target: T6, AePiwi4 PAZ WT

Binder | Kd (AePiwi4 PAZ T41A) [µM] | Kd (AePiwi4 PAZ T41R) [µM] | binding result (AePiwi4 PAZ Y40A) | Kd (AePiwi4 PAZ T39A) [µM] | binding result (AePiwi4 PAZ F55A) | Kd (AePiwi4 PAZ WT) [µM] | Kd (AePiwi4 PAZ Y40A) [µM]
B1 | 5.6 ± 1.2 | 2 ± 0.5 | no binding | 2.8 ± 0.4 | no binding | 5 ± 2.2 | –
B2 | – | – | – | – | – | 2.5 ± 0.1 | –
B3 | 1.4 ± 0.1 | 0.57 ± 0.1 | – | 0.98 ± 0.2 | no binding | 1.7 ± 0.8 | 5.5 ± 0.5
